Reference: patent publication US20210395344A1
Where a chain is given by its changes, count along the chain named.

B1: 1-28 (antibody, V domains shown)
VH: EVQLLESGGGLVQPGGSLRLSCAASGFTFSSYGMSWVRQAPGKGLEWVSAISGSGGGTYYADSVKGRFTISRDNSKNTLYLQMNSLRAEDTAVYYCASSSSWQFDYWGQGTLVTVSS
VL: QSALTQPASVSGSPGQSITISCTGTSSGVGSYNLVSWYQQHPGKAPKLMIYEGSQRPSGVSNRFSGSKSGNTASLTISGLQAEDEADYYCCSYAGSSTHYVFGGGTKLTVL
B2: 1-3 (antibody, V domains shown)
VH: EVQLLESGGGLVQPGGSLRLSCAASGFTFSSQAMSWVRQAPGKGLEWVSAISGSGGGTYYADSVKGRFTISRDNSKNTLYLQMNSLRAEDTAVYYCAKDRRFGEFDPWGQGTLVTVSS
VL: B1 VL with T25I, G28D, S54T, Q55K, T98S, H99F, Y100V
B3: 1-4 (antibody, V domains shown)
VH: B2 VH
VL: B1 VL with G28D, S31T, T98S, H99F, Y100V
B4: 1-30 (antibody, V domains shown)
VH: EVQLLESGGGLVQPGGSLRLSCAASGFTFSSYAMTWVRQAPGKGLEWVSAISGSGGSTFYADSVKGRFTISRDNSKNTLYLQMNSLRAEDTAVYYCTRPPYGDYGDYWGQGTLVTVSS
VL: B1 VL with S27R, G28D, S54T, Q55K, S97R, H99P, Y100V
B5: 1-31 (antibody, V domains shown)
VH: B4 VH with T35N
VL: B1 VL with G28D, S31K, S97R, H99P, Y100V
B6: 1-32 (antibody, V domains shown)
VH: B4 VH with T35Y
VL: QSALTQPASVSGSPGQSITISCTGTSSDVGGYNLVSWYQQHPGKAPKLMIYEGNKRPSGVSNRFSGSKSGNTASLTISGLQAEDEADYYCCSYAGSSTFPVVFGGGTKLTVL

What follows are binders tested against SARS-CoV-2 S protein trimer (SARS-CoV-2), P0DTC2 (assay: column Fc/S-T (format not explained)). Conditions: remark: other sources report otherwise.

Binder | Kd [nM]
B1 | 8.6
B2 | 10
B3 | 12.3

These binders were tested against SARS-CoV-2 S protein trimer (SARS-CoV-2), P0DTC2 (assay: column DB/S-T (format not explained)). Conditions: remark: other sources report otherwise.

Binder | Kd [nM]
B1 | 13.4
B2 | 423
B3 | 6.6

What follows are binders tested against SARS-CoV-2 S protein trimer (SARS-CoV-2), P0DTC2 (assay: ELISA on coated S trimer; quantity not named). Conditions: remark: other sources report otherwise.

Binder | S Trimer [nM]
B4 | 4.02
B5 | 0.8

What follows are binders tested against COVID S1 RBD Fc fusion (Antigen 1) (SARS-CoV-2), P0DTC2 (assay: phage ELISA). Conditions: remark: other sources report otherwise.

Binder | ELISA fold over background (fold over background)
B4 | 1.7
B6 | 1.5
B5 | 1.3
B1 | 1.1
B2 | 1.8
B3 | 1.4

These binders were tested against SARS-CoV-2 S protein trimer (SARS-CoV-2), P0DTC2 (assay: column DC/S-T (format not explained)). Conditions: remark: other sources report otherwise.

Binder | Kd [nM]
B4 | 476000
B1 | 96.6
B2 | 5310
B3 | 129
